{"source": "patent US20220154156A1", "about": "“PROTEINS AND METHODS FOR DISRUPTING BACTERIAL COMMUNICATION” (REGENTS OF THE UNIVERSITY OF MINNESOTA, priority 2019, published 2022)", "molecules": {"B1": {"name": "SsoPox W263I: improved variant of the hyperthermostable lactonase SsoPox from Sulfolobus solfataricus, exhibiting higher catalytic rates (protein, UniProt Q97VT7 1-314, looked up, variant W263I)", "Aryldialkylphosphatase": "MRIPLVGKDSIESKDIGFTLIHEHLRVFSEAVRQQWPHLYNEDEEFRNAVNEVKRAMQFGVKTIVDPTVMGLGRDIRFMEKVVKATGINLVAGTGIYIYIDLPFYFLNRSIDEIADLFIHDIKEGIQGTLNKAGFVKIAADEPGITKDVEKVIRAAAIANKETKVPIITHSNAHNNTGLEQQRILTEEGVDPGKILIGHLGDTDNIDYIKKIADKGSFIGLDRYGLDLFLPVDKRNETTLRLIKDGYSDKIMISHDYCCTIDIGTAKPEYKPKLAPRWSITLIFEDTIPFLKRNGVNEEVIATIFKENPKKFFS"}}, "key": {"[1]": {"tested_on": "Xanthomonas translucens pv. translucens LMG876", "assay": "Barley leaf infection", "type": "in vivo", "settings": "single spraying of 1 mL, 10 mg/mL", "protocol": "FIG. 30A-30F show control of plant infections by a single spraying of 1 mL of lactonase solution (10 mg/mL) on plant leaves and crop. (A) and (B) Soft rot potato assay.\nSpecifically, we could establish infection systems for corn, wheat, and barley plants, and a crop infection system for potato (tubers and leaves)."}, "[2]": {"assay": "Lactonase assay (pH indicator, cresol purple), kinetic measurements", "type": "biochemical", "settings": "AHL acyl chain length", "protocol": "Kinetic measurements. The determination of GcL catalytic efficiency was performed by using a microplate reader (Synergy HTX, BioTek, USA) and the software Gen5.1 over a range of substrates (FIG. 2). The reactions were operate in a 96-well plate at a path length of 5.8 mm for a 200 μl reaction volume at room temperature. The catalytic parameters were achieved by fitting the data to Michaelis-Menten equation with the Graph-Pad Prism 5 software. When, Vmax was not reached, the catalytic efficiency was determined by fitting the linear part of Michaelis-Menten plot to a linear regression using Graph-Pad Prism 5.\nLactonase assay. The AHL lactonolysis consisting in the opening of the lactone ring generates a proton, and leads to an acidification of the media. This property allowed the characterization of the lactonases by using a pH indicator assay. To perform the experiment 5 μl of enzyme were added to a solution containing 10 μl of substrates at various concentrations and 185 μl of lactonase buffer (2.5 mM Bicine pH 8.3, 150 mM NaCl, 0.2 mM CoCl2, 0.2 mM cresol purple, 0.5% DMSO). This assay was performed at 25° C. and the time course of the lactones hydrolysis was recorded at 577 nm. The characterization of the enzyme was proceeding against a large panel of AHLs: C4-AHL, C6-AHL, C8-AHL, C10-AHL, 3-oxo-C8-AHL and against γ-Butyrolactone, γ-Heptalactone, γ-Nonalactone, γ-Decanolactone, δ-Valerolactone, δ-Octanolactone, δ-Nonalactone, δ-Decalactone, ε-Caprolactone, ε-Decalactone, Whiskey lactone."}, "soil bacterial community": {"tested_on": "soil bacterial community", "assay": "Different lactonases on soil microbial community (Example 8)", "type": "cell-based", "settings": "7 days, vs inactive SsoPox 5A8", "protocol": "Principal component analysis (PCA) based on deep bacterial 16S rDNA sequences (Illumina V4 region).\nThe same experiments as described above were performed on the same soil microbial community but with two different lactonases, GcL, and Ssopox W263I. These enzymes differ primarily by their substrate specificity. […] This is important because different bacteria use different AHLs to communicate. Indeed, The structure of AHLs vary a lot with respect to the length of N-acyl chains (from C4 to C18), the hydroxyl or oxo group of the acyl chain and the saturated or unsaturated state of the carbon chain^1. The hydrophobicity of AHLs relates to their passive diffusion through membranes. […] In fact, regulatory circuits may be interconnected, like in P. aeruginosa^6, and allow for compensatory responses: if the LasI/LasR system is inactivated, the RhlI/RhlR system can still control LasI/LasR-spectific functions^7."}, "[3]": {"tested_on": "P. syringae pv. Phaseolicola", "assay": "Kidney bean plant infection", "type": "in vivo", "settings": "sprayed, 14 days, multiple inoculations", "protocol": "Plants were inoculated twice (day 1 and day 6) with 5×10^6 cells P. syringae pv. Phaseolicola. Left, leaves were sprayed with enzyme buffer after the fist inoculation, for right, leaves were sprayed with buffer containing the QQ lactonase (0.5 mg/mL). Pictures were taken at day 14.\nKidney bean plants were grown and infected with P. syringae pv. Phaseolicola."}, "[4]": {"tested_on": "corrosion tubercles on steel coupons", "assay": "Biocorrosion of coated steel coupons in Duluth-Superior Harbor water, 8 weeks", "design": "concentration or dose not given beside the values", "settings": "silica gel coating, two months in DSH water", "protocol": "The steel coupons were washed with soap water, lightly brushed for a few seconds with a test tube brush, and then rinsed with Milli-Q water to remove any loose material. Each coupon was designated with a unique number and weighed before being randomly assigned to a specific experimental treatment.\nEach compound or enzyme was added to 5 ml of the silica gel matrix to develop different coating treatments. These coatings were applied by dipping coupons into the appropriate gel mixture for 1 minute, and then the coating on the coupon surface was air-dried at room temperature for 2 hours.\nSix treatments and three controls were investigated for corrosion rate and changes in bacterial communities (Table 10). Each treatment or control contained three replicate steel coupons. After the triplicate steel coupons were coated with each biochemical, enzyme or bacterial treatment, they were incubated in experimental microcosms constructed from 10-gallon glass aquaria (Aqueon Glass, 50.8 cm×25.4 cm×30.5 cm) (FIG. 24). Each microcosm was equipped with an aquarium pump (Aquarium Systems Mini-Jet 404) to constantly circulate the water (˜2 L hr−1), and covered with a piece of acrylic with one corner cut out to allow gas exchange. The coupons were hold with plastic holders and immersed in water taken from the DSH for 8 weeks and then recovered for analyses.\nThe coupons in each treatment was photographed by the end of the experiment. Biocorrosion was evaluated by the number and coverage of corrosion tubercles, and also by imaging of coupon surfaces with an environmental scanning electron microscope (ESEM). The coupon images were captured with DSLR camera immediately after being removed from the harbor water, and then tubercle numbers and total area in digital images were measured using the analyze menu within ImageJ software (NIH, Bethesda, Md., USA). Surface roughness measurements were also made after the exposed coupons were cleaned with ASTM G1-90 iron and steel chemical cleaning procedure (2 min in 37% HCl, 50 g/L SnCl2). A Hitachi TM-3030 ESEM was used to view details of the cleaned coupon surface and the 3D-View software was used to generate surface roughness measurements (SRa). Statistics analysis (T-tests) of the tubercle numbers, coverage and surface roughness were performed using Microsoft Excel software."}, "[5]": {"settings": "25° C., purified protein sample; cited from earlier work"}, "[6]": {"tested_on": "corrosion tubercles on steel coupons", "assay": "Dose-response of lactonase for inhibiting biocorrosion, 7 weeks", "protocol": "Five treatments with lactonase enzyme and two controls of the steel coupons were investigated for enzyme activity and corrosion rate. Each treatment or control contained three replicate steel coupons. They were exposed in lake water in lab microcosm for a period of 7 weeks. Lactonase enzyme silica gel coated testing coupon are prepared as described before, except the coupons were dipped and dried twice and covered with 2 layers of the same coating to ensure the intactness of the coating. The enzyme concentrations used in this experiment were 100, 200, 500, 1000 μg/ml. Also 100 μg/ml equivalent activity lactonase raw extract was tested to compare the effectiveness of raw enzyme extract to the purified lactonase enzyme.\nAfter 7 weeks of exposure, coupons were retrieved and analyzed. The coupons in each treatment was photographed by the end of the experiment. Biocorrosion was evaluated by quantities and coverage of corrosion tubercle. Surface roughness measurement were also made with procedure described above."}, "[7]": {"settings": "all concentrations 100-1000 μg/ml, 7 weeks, p<0.05"}}}
{"molecule": "B1", "values": [{"measurement": "leaf spots on barley leaves", "setting": "[1]", "result": "Absence of leaf spots"}, {"measurement": "substrate specificity", "setting": "[2]", "result": "not capable of degrading short chain AHLs"}, {"measurement": "planktonic microbial community composition", "setting": "soil bacterial community", "result": "induce differential planktonic microbial community biases"}, {"measurement": "protection of kidney bean plant", "setting": "[3]", "result": "protected the plant from infection"}, {"measurement": "reduction of the coverage of corrosion tubercles", "setting": "[4]", "result": 50, "unit": "%"}, {"measurement": "reduction of the number (formation) of corrosion tubercles", "setting": "[4]", "result": 50, "unit": "%"}, {"measurement": "time remaining stable", "setting": "[5]", "result": "> 300", "unit": "days"}, {"measurement": "reduction of number of corrosion tubercles", "setting": "[6]; [7]", "result": "> 38", "unit": "%"}, {"measurement": "reduction of percent coverage of corrosion tubercles", "setting": "[6]; [7]", "result": "> 41", "unit": "%"}, {"measurement": "reduction of surface roughness", "setting": "[6]; all treatments", "result": "not statistically significant"}, {"measurement": "optimal concentration for coating application", "setting": "[6]; highest reduction of corrosion tubercles", "result": 200, "unit": "µg/mL"}]}
